In US20210403593A1 (TIZONA THERAPEUTICS, published 2021):
Residue numbers refer to the chain shown, from its start. Each block holds one binder with its values, some of them ahead of it.

What was measured:
[1] = molecular target: T1, Chimera #14 (Homo sapiens (Human), UniProt P49961 1-510); assay: FACS on CHO cells; human CD39 with mouse S153 and T154
T1 construct: Expressed on CHO cells
T1 sequence: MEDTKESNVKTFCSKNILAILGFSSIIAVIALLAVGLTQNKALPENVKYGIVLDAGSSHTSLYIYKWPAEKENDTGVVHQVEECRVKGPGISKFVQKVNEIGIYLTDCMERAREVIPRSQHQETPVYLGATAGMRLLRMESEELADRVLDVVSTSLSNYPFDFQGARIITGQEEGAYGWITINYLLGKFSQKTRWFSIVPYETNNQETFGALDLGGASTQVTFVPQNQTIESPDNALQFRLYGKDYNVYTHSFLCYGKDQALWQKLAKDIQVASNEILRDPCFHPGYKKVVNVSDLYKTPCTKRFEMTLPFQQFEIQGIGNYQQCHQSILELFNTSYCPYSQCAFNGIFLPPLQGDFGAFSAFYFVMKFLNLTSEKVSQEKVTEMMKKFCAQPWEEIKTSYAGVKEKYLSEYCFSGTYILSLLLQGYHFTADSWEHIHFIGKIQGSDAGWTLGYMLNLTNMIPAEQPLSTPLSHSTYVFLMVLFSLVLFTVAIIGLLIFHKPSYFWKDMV

[2] = molecular target: T2, Chimera #13 (Homo sapiens (Human), UniProt P49961 1-510); assay: FACS on CHO cells; human CD39 with mouse D99 and T154
T2 construct: Expressed on CHO cells
T2 sequence: T1 sequence with N99D, S153E

[3] = molecular target: T3, Chimera #2 (human, UniProt P49961 1-510); assay: FACS on CHO cells; human M1-E142 + mouse Q143-S158 ([..]) + human Y159-V510
T3 construct: Expressed on CHO cells; also called human-mouse Chimera #2
T3 chain: T1 sequence with E143Q, L144S, R147E, D150A, V151A, S157K, N158S

[4] = molecular target: T4, cynomolgus macaque (Macaca fascicularis) CD39 (Macaca fascicularis, UniProt P49961 7-510 (human entry)); assay: flow cytometry, 100 nM IgG, MFI on CHO-cCD39 / MFI on parental CHO;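 further: antibodies bound to the cells for 30 min in PBS, then bound IgG was revealed with a fluorescent goat anti-human IgG secondary antibody, 20 min on ice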
T4 construct: On engineered CHO cells and on primary cyno B cells and monocytes; also called cyno CD39; cCD39
T4 chain: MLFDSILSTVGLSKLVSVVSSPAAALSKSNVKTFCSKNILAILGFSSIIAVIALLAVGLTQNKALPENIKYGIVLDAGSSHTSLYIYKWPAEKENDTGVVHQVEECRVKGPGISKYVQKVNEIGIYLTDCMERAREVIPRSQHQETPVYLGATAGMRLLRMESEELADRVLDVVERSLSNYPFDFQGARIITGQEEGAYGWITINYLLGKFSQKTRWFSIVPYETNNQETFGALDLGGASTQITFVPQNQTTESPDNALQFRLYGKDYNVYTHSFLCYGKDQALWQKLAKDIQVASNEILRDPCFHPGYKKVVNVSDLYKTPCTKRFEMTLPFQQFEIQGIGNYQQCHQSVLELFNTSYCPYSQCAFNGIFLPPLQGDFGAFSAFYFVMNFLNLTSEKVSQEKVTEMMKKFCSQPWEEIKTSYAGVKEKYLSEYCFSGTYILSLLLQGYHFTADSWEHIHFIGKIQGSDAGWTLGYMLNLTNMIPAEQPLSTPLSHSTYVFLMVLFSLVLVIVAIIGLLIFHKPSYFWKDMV

[5] = molecular target: T5, human CD39 (cellular) (human, UniProt P49961 1-510); assay: flow cytometry, 100 nM IgG, MFI on CHO-hCD39 / MFI on parental CHO;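 further: cells exposed to IgG for 30 min on ice in PBS, bound antibody then revealed with a fluorescent goat anti-human IgG secondary (20 min, on ice)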
T5 construct: Same protein on engineered CHO cells and on cells that express it endogenously; also called hCD39; cellular CD39
T5 sequence: T1 sequence with S153E, T154R

binding result [1]: no binding (tested: 15 ug/ml)
binding result [2]: no binding (tested: 15 ug/ml)
binding result [3]: no binding (tested: 15 ug/ml)
Cell Binding (FOB) [4]: 4660 fold over background
Cell Binding (FOB) [5]: 1110 fold over background
B1: 31901 (antibody, human IgG4 S228P, kappa, V domains shown)
VH: QVQLVQSGAEVKKPGSSVKVSCKASGGTFSSLPISWVRQAPGQGLEWMGGIGFGTANYAQKFQGRVTITADESTSTAYMELSSLRSEDTAVYYCARGGAKYAGRYGMDVWGQGTTVTVSS
VL: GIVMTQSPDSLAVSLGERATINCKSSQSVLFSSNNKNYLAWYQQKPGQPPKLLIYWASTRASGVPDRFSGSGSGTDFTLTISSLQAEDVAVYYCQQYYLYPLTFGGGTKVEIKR

binding result [1]: no binding (tested: 15 ug/ml)
binding result [2]: no binding (tested: 15 ug/ml)
binding result [3]: no binding (tested: 15 ug/ml)
Cell Binding (FOB) [4]: 4940 fold over background
Cell Binding (FOB) [5]: 1080 fold over background
B2: 31905 (antibody, human IgG4 S228P, kappa, V domains shown)
VH: B1 VH with S30P, L32N, P33A, G103R, R104T
VL: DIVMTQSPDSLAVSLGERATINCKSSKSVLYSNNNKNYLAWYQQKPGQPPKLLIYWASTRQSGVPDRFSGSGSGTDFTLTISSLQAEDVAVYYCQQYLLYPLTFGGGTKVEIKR
